These results are taken from patent US20230322888A1.

Assay in all cases: cell-based or functional assay
For test [1], the target named is human GLP1 receptor (human) (UniProt P43220).
In test [2] the target is cynomolgus monkey GLP1 receptor (cynomolgus monkey) (UniProt F8V479).
Test [3] has as its target mouse GLP1 receptor (mouse) (UniProt O35659).

Chain of Albiglutide (chain): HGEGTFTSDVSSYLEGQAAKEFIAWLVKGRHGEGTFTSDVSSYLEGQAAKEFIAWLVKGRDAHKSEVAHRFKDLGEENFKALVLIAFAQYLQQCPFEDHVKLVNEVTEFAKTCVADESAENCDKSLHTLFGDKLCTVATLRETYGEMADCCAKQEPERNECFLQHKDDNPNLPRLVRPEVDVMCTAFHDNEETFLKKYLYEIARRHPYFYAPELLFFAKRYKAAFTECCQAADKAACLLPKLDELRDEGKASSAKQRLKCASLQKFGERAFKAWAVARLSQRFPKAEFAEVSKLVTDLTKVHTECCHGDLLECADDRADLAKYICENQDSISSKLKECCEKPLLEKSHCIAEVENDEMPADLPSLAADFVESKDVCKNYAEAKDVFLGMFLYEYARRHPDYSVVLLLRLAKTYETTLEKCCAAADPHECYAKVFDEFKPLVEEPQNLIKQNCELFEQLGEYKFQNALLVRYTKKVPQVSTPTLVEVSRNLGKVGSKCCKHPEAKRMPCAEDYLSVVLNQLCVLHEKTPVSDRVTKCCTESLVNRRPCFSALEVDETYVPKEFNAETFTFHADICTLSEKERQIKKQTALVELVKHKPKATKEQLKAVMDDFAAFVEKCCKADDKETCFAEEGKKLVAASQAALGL
Chain of cynomolgus monkey GLP1 receptor (cynomolgus monkey) (F8V479 entry or part of it): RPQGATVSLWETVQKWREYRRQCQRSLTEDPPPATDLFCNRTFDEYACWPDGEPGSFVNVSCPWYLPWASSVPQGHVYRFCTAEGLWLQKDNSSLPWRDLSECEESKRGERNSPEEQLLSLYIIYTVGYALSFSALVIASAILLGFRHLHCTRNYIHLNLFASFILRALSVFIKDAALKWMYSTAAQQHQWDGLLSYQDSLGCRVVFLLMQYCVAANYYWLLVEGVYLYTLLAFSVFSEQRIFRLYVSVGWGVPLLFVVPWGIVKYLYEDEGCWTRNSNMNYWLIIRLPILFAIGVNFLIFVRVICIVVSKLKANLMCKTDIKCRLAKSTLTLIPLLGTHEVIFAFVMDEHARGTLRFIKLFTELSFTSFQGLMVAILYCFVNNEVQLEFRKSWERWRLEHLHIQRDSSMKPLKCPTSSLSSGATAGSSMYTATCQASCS
Chain of mouse GLP1 receptor (mouse) (O35659 22-463): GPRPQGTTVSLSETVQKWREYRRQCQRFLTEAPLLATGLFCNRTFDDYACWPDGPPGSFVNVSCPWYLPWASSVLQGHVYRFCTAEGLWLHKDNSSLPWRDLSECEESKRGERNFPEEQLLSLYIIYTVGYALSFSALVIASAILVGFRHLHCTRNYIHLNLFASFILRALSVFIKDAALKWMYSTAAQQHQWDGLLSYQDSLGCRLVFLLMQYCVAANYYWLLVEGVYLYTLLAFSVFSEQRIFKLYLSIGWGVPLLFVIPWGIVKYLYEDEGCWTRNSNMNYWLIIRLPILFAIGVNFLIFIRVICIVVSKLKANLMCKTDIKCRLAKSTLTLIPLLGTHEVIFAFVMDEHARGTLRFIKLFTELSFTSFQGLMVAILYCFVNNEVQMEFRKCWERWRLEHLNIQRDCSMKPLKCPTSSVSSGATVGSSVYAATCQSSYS
Chain of Dulaglutide (Fc fusion) (chain): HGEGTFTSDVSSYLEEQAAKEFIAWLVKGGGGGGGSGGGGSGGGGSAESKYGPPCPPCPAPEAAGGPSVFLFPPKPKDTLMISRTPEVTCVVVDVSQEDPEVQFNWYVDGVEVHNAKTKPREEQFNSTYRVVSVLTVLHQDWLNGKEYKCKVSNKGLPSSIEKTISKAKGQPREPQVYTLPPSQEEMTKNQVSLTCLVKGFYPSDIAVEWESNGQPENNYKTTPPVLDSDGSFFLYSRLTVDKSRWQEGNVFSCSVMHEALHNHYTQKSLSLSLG
Chain of human GLP1 receptor (human) (P43220 24-463): as the sequence (F8V479 entry or part of it) above, with N112S, S120F, G202S, V205L, F237L, R241W, V249I counted along it

As to Dulaglutide (Fc fusion), the cAMP induction hGLP1R EC50 in test [1] stood at 0.038 nM. Moreover, in test [2], the cAMP induction CGLP1R EC50 came out at 0.045 nM. In test [3], the cAMP induction mGLP1R EC50 worked out at 0.02 nM.
Consider Liraglutide (peptide), for which the cAMP induction CGLP1R EC50 in test [2] was 0.079 nM. Also, in test [3], the cAMP induction mGLP1R EC50 is 0.052 nM.
As for Albiglutide, the cAMP induction hGLP1R EC50 in test [1] stood at 0.981 nM. In test [2], the cAMP induction CGLP1R EC50 amounted to 1.76 nM. Further, the cAMP induction mGLP1R EC50 in test [3] worked out at 1.49 nM.
Take “GLP1 (from UniProt P01275 98-127) (peptide)”: the cAMP induction mGLP1R EC50 in test [3] stood at 0.012 nM.
